Experimental data from article PMC2886590 (Journal of molecular biology, 2010).
Values belong to the binder of their own block, whether it stands above or below them. Where no end group is shown, it is not given here.

Target: MLL PHD3 finger (residues 1565-1627), GST cleaved (human, UniProt Q03164 1565-1627)
Test: other fluorescence titration

Sequence of MLL PHD3 finger (residues 1565-1627), GST cleaved (Q03164 1565-1627): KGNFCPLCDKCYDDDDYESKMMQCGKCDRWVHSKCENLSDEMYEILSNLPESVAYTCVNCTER

- fold lower affinity than for H3K4me3: 53 fold
B1: H3K4me1 peptide (12-mer histone tail peptide) (peptide)
chain: ARTK(Me)QTARKSTG

- fold lower affinity than for H3K4me3: 8 fold
B2: H3K4me2 peptide (12-mer histone tail peptide) (peptide)
chain: ARTK(Me2)QTARKSTG
